Where a chain is given by its changes, count along the chain named.
B1: antibody 2 (VHH)
VHH: QVQLVESGGGLVQPGGSLSLSCVASGFTFSSYAMRWVRQAPGKEPEWVAGINTGSEIVVYANSVRGRFAISRDNARDTLFLQMNSLKPEDTAVYYCATGLVSAEHDGIWGQGTQVTVSS
B2: antibody 1 (VHH)
VHH: QVQLVESGGGLVQAGGSLRLSCAASGRSFSSSGMGWFRQAPGKDREFVATINSSGGDTYYRDSVEGRFTTSRDNAKNTMSLQMNDLKPEDTAVYYCAAKEGGGPSSIPAIYDYWGQGTQVTVSS
notes: expressed in mammalian cells
B3: antibody 5 (VHH)
VHH: B2 VHH with R61A, Y111F
B4: antibody 3 (VHH)
VHH: EVQLVESGGGSVQTGGSLRLSCVASGRDFLTYGMGWFRQAPGKEREFVASINWSGSMTYYADSVKGRFTISRDNAKNTVYLQMNSLKPGDTAVYICAARRGAVTYASSNEYEHWGQGTQVTVSS
B5: antibody 3hu (VHH)
VHH: B4 VHH with S11L, T14P, V23A, E44G, P88A, G89E, Q119L
notes: Humanized nanobody; also called humanized antibody 3
B6: antibody 4 (VHH)
VHH: B4 VHH with S11L, T14A, G16D, V23T

Experiments:
[1] = molecular target: T1, Cynomolgus/Rhesus macaque PD-L1-hFc protein (ACRO Biosystems) (Cynomolgus/Rhesus macaque, UniProt G7PSE7 19-238); test: ELISA, plate coated with Cynomolgus/Rhesus macaque PD-L1-hFc
T1 construct: Bought protein; also called Cyno PD-L1; cynomolgus monkey PD-L1
T1 sequence (G7PSE7 entry or part of it limits assumed, form in doubt): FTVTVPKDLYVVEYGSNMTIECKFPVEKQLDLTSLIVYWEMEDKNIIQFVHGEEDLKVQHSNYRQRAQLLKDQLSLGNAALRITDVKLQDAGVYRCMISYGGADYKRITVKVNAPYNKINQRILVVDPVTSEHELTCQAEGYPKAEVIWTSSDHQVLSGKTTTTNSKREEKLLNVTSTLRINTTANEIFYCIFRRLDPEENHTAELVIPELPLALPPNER
Description: (§1) A 96-well plate was coated with 1 μg/mL Cynomolgus/Rhesus macaque PD-L1-hFc protein (manufacturer: ACRO Biosystems) and incubated at 4° C. overnight. The plate was washed with wash buffer and then blocked with a PBS solution containing 2% BSA for 60 minutes. After a wash with wash buffer, different concentrations of the antibodies to be tested (the initial concentration was 100 nM, and 4-fold gradient dilution was performed) were added, and the plate was incubated at 37° C. for 120 minutes. The plate was washed with wash buffer, and an HRP-labeled goat anti-human secondary antibody (diluted at 1:10,000, manufacturer: Jackson) was then added. The plate was incubated at 37° C. for 60 minutes. The plate was washed with wash buffer, and TMB substrate solution was added at 100 μL/well. After 10-15 minutes of reaction at room temperature, 100 μL of 2 M hydrochloric acid stop solution was added to stop the reaction.

[2] = molecular target: T2, mouse PD-L1-hFc protein (ACRO Biosystems) (mouse, UniProt Q9EP73 19-238); test: ELISA, plate coated with mouse PD-L1-hFc
T2 construct: Bought protein; not shown: human Fc (hFc)
T2 sequence (Q9EP73 19-238 limits assumed): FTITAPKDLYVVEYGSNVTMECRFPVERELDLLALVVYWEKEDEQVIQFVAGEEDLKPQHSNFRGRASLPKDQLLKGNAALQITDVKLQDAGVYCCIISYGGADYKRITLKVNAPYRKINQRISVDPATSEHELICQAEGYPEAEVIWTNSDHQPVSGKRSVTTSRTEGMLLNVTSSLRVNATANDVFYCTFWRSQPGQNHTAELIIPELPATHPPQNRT
Description: as §1, with “mouse” for “Cynomolgus/Rhesus macaque”, “and” for “and then”, “1:10,000)” for “1:10,000, manufacturer: Jackson)”, “reaction, and OD450 values were measured with a microplate reader.” for “reaction.”

[3] = molecular target: T3, human PD-L1 on cells (human, UniProt Q9NZQ7 19-290); test: competitive flow cytometry on 293T-PD-L1 cells, blocking of human-CD80-mFc binding
T3 construct: whole, on cells; Same protein on three cell lines; also called hPD-L1; the antigen
T3 sequence (Q9NZQ7 19-290): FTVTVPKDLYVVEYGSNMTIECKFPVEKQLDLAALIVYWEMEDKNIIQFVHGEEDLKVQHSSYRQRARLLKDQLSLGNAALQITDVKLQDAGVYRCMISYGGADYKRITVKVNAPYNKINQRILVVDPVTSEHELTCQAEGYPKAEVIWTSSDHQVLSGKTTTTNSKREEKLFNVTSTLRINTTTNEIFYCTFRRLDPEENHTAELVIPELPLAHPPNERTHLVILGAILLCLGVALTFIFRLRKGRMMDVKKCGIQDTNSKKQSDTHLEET
Description: The blocking of PD-L1 binding to CD-80 by the antibodies was measured using a competitive flow cytometry method. 293T-PD-L1 cells were added to a 96-well plate at 1×10⁵ cells/well. Antibody dilutions with different concentrations (the initial working concentration was 200 nM, and 4-fold dilution was performed) were added to the cells, and the plate was incubated at 4° C. for 30 minutes. After the incubation, the plate was washed with PBS containing 2% FBS and centrifuged at 1200 rpm for 4 minutes, and the supernatants were discarded. Then human-CD80-mFc (2 μg/mL, manufacturer: ACRO) was added at 100 μL/well, and the plate was incubated in the dark at 4° C. for 30 minutes. After the incubation, the plate was washed with PBS containing 2% FBS. A fluorescently labeled goat anti-mouse IgG secondary antibody diluted at 1:200 was added at 100 μL/well, and the plate was incubated in the dark at 4° C. for 30 minutes. After the incubation, the plate was washed with PBS containing 2% FBS and tested on a flow cytometer. The mean fluorescence values were measured.

[4] = molecular target: T3, human PD-L1 on cells; test: cell-based or functional assay
[5] = molecular target: T3, human PD-L1 on cells; test: flow cytometry on MC38-hPD-L1 cells overexpressing human PD-L1
Description: The binding activity of the humanized antibodies to PD-L1 was measured by flow cytometry. An MC38-hPD-L1 cell line that overexpresses human PD-L1 (manufacturer: Kyinno Biotechnology (Beijing) Co., Ltd.) was thawed, and the cells were added to a 96-well plate at 1×10⁵ cells/well. Different concentrations of the antibodies to be tested (the initial concentration was 100 nM, and 5-fold gradient dilution was performed) were added, and the plate was incubated at 4° C. for 30 minutes. A fluorescently labeled goat anti-human IgG secondary antibody (manufacturer: abcam, catalog No. 98596) was then added to detect antibodies bound to the cell surfaces. Antibody-antigen binding dose response curves were generated using geometric values, and four-parameter raw data were plotted using the Graphpad Prism V6.0 software.

[6] = molecular target: PD-L1-Biotin (UniProt Q9NZQ7 19-238, limits assumed, biotin label (site not stated)); test: competitive flow cytometry: antibody premixed with PD-L1-Biotin, blocking of binding to 293T-hPD1 cells
PD-L1-Biotin, sequence (Q9NZQ7 19-238 limits assumed): as the sequence (G7PSE7 entry or part of it limits assumed, form in doubt) above, with T33A, S34A, N62S, Q68R, R82Q, L173F, A185T, I192T, L215H counted along it
Description: The blocking of PD-L1 binding to its ligand PD-1 by the humanized antibodies was measured using a method based on competitive flow cytometry. 293T-hPD1 cells were added to a 96-well plate at 1×10⁵ cells/well. Different concentrations of the antibodies to be tested (the initial working concentration was 200 nM, and 4-fold dilution was performed) were mixed with a PD-L1-Biotin dilution (2 μg/mL, 50 μL/well), and the mixtures were incubated at room temperature for 30 minutes. Then the mixtures were added to the cells at 100 μL/well and well mixed. The plate was incubated at 4° C. for 60 minutes, and the blocking activity of the antibodies was measured using a PE fluorescently labeled streptavidin flow cytometry antibody. The mean fluorescence values were measured. Then antibody-antigen blocking reaction curves were generated using geometric values, and four-parameter plots were generated using the Graphpad Prism V6.0 software.

Binder | EC50 [1] [nM] | binding result [2] | IC50 [3] [nM] | IC50 (nM), NFAT-luciferase reporter gene assay [4] [nM] | EC50 [5] [nM] | IC50 [6] [nM]
B1 | 0.136 | no binding (tested: initial concentration 100 nM) | 1.5 | 0.2 | 0.14 | 2.7
B2 | 0.133 | no binding (tested: initial concentration 100 nM) | 2.6 | 0.378 | 0.041 | 4.2
B3 | 0.034 | no binding (tested: initial concentration 100 nM) | – | 0.305 | – | –
B4 | 0.04 | no binding (tested: initial concentration 100 nM) | 5.2 | 0.211 | 0.025 | 1.1
B5 | – | – | – | – | 0.025 | –
B6 | 0.034 | no binding (tested: initial concentration 100 nM) | 1.5 | 0.26 | 0.16 | 2.8
